The values below are quoted from earlier work in article PMC8781899.

Where two headings read alike, the source gives them in different places.

For orientation: Kd means the equilibrium constant for the complex coming apart.

Data set [1] concerns the target DR4 (Homo sapiens) (UniProt O00220).
Data set [2] shares this target. The source holds these as a separate data set.

UniProt O00220, sequence (O00220 24-468): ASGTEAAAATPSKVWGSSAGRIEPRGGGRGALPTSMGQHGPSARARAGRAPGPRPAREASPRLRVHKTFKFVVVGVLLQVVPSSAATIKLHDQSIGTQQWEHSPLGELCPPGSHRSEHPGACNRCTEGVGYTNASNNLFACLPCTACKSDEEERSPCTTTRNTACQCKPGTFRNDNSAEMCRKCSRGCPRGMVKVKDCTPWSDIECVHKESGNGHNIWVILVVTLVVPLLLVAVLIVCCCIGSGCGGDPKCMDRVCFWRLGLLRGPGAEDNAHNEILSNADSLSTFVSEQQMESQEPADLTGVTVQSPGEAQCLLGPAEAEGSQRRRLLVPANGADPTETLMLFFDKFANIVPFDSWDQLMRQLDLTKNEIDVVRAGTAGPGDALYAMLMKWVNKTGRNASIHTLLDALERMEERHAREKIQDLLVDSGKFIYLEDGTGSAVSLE
TRAIL, sequence (P50591 whole entry): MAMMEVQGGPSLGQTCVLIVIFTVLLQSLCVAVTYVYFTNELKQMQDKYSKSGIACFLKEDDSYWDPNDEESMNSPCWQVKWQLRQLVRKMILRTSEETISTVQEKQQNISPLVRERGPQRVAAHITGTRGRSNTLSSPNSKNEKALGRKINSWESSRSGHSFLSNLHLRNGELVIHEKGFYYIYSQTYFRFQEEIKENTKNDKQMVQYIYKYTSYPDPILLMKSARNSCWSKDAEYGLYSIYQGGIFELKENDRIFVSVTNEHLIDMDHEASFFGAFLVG

In the case of “TRAIL D269H/E195R (DHER) (from UniProt P50591)”, the Kd in data set [1] is 2.9 nM. With TRAIL (from UniProt P50591), the dissociation constant (Kd) in data set [2] was 0.17 nM.
